Assay results published in patent US20090311257A1 (XOMA TECHNOLOGY, published 2009).
Numbering of substitutions follows the chain as printed. Where no end group is shown, it is not given here.

B1: XPA065 (phage display-derived antibody fragment) (antibody, V domains shown)
VH: EVQLVQSGAEVKKPGSSVTVSCKASGGTFDKYAIGWVRQAPGQGLEWMGRIIPTLDLANSAQKFQDRVTITADKFTTTVYMELTNLRPEDTAMYYCTRDPLYNWSGSYWGRGTMVTVSS
VL: QAVLTQPSSLSASPGTSASLTCTLRSGINVGSYRIYWYQQRPGSPPQYLLRYKSDSDKQQGSGVPSRFSGSKDASANAGVLFISGLQSDDEADYYCMIWHNSAWVFGGGTKLTVL
B2: XPA061 (phage display-derived antibody fragment) (antibody, V domains shown)
VH: QVQLVQSGAEVKKPGSSVKVSCKISGGTFSSHAIGWVRQAPGQGLEWIGRIIPSLDLDNSAPKFQDRVTITADKFTNTAYMELRNLRPEDTAFYYCTGDPLYNWTGAHWGRGTMVTVSS
VL: QAVLTQPSSLSASPGASASLTCTLRSDINVGTYRIYWYQQKSGSPPQYLLRYRSDSDKQQGSGVPSRFSGSKDASANAGILLISGLQSEDEADYYCMIWHSSAWVFGGGTKVTVL
B3: a monoclonal antibody with affinity of about 10^-9 M (anti-gastrin, not named in the sentence) (antibody, V domains shown)
VH: B1 VH
VL: B2 VL with D27G, S42P, R53K, V112L
B4: XPA067 reformatted whole human IgG (antibody, V domains shown)
VH: B1 VH
VL: B2 VL with D27G, S42P, R53K, V112L
notes: also called parent antibody XPA067; parental a-gastrin mAb
B5: XPA081 (phage display-derived antibody fragment) (antibody, V domains shown)
VH: B1 VH with T54S, A58D, E82K, T84S, M93I, N103Q, R111K, M114L
VL: B2 VL with S42P, R53K, E89G, E91G, V112L
B6: XPA061 reformatted whole human IgG (antibody, V domains shown)
VH: B2 VH
VL: B2 VL
B7: XPA067 (parental antibody fragment) (antibody, V domains shown)
VH: B1 VH
VL: B2 VL with D27G, S42P, R53K, V112L
notes: also called parental (XPA067)
B8: XPA063 (phage display-derived antibody fragment) (antibody, V domains shown)
VH: B1 VH with T54S, A58D, E82K, T84S
VL: B2 VL with D27G, S42P, R53K, V112L
B9: human gastrin (h-G17) (ligand, UniProt P01350 76-92, looked up)
peptide: QGPWLEEEEEAYGWMDF

How the values were obtained:
[1] = biological target: B9; experiment: cell-based or functional assay
[2] = biological target: B9; experiment: summary sentence of the filing's own data; method not given; antibody not named
[3] = biological target: B9; experiment: KD measurement of reformatted IgG; method and antigen form not stated in the example; reformatted IgG, Table 2 lead selection
[4] = biological target: B9; experiment: cell-based or functional assay
[5] = biological target: T1, biotinylated 10 amino acid peptide from the N terminal portion of Gastrin 17 (human, UniProt P01350 76-85, limits assumed, ends and bridges not checked); experiment: SPR, measured as described previously (BIACORE, biotinylated peptide on streptavidin chip); reformatted IgG
T1 construct: domain: 10 amino acid peptide from the N terminal portion of Gastrin 17; Panning target; also called biotinylated peptide; biotinylated peptides
T1 peptide (looked up): QGPWLEEEEE-biotin
Experimental: (§1) Affinities of the parental (XPA067) and matured antibody fragments were determined by surface plasmon resonance using a BIACORE® 2000. Affinity constants were calculated from the kinetic rate constants for antibody binding to biotinylated peptide immobilized on a Streptavidin sensor chip.
(§2) A very low density of peptide was immobilized in order to avoid bivalent binding by the antibodies to the sensor chip. Antibodies were tested in triplicate at six concentrations of three-fold serial dilutions. Data were analyzed using BiaEval Software.
Antibody affinity was measured as described previously.

[6] = biological target: B9; experiment: KD measurement of reformatted IgG; method and antigen form not stated in the example
[7] = biological target: T1, biotinylated 10 amino acid peptide from …; experiment: SPR (BIACORE 2000), antibody over low-density biotinylated peptide on streptavidin chip; from kinetic rate constants; parental fragment, Table 3 comparator to the matured fragments
Experimental: as §1, §2

[8] = biological target: T2, CCK2R on the CCK2R overexpressing cell line AGS-TR (UniProt P32239 1-447, limits assumed); experiment: cell-based or functional assay
T2 sequence (looked up): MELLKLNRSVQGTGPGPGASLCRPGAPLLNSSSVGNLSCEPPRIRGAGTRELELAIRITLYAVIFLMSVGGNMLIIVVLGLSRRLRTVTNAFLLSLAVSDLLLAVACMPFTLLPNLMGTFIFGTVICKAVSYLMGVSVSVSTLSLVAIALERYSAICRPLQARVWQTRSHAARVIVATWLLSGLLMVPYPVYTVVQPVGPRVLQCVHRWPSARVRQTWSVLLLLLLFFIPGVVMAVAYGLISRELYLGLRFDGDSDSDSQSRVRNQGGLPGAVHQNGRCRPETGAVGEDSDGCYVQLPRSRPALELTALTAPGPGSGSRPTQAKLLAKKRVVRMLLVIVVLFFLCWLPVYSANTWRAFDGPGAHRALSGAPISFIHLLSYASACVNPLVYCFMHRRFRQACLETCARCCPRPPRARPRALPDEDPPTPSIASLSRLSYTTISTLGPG

| Binder | Ca flux neutralization at 2x molar excess [1] [%] | Ca flux neutralization at roughly 100 fold molar excess over gastrin (1 nM) [1] [%] | also measured |
| --- | --- | --- | --- |
| B1 | < 20 | ~80 |  |
| B2 | ~70 | ~80 |  |
| B3 |  |  | Kd [2]: ~1 nM |
| B4 |  |  | Kd [3]: 3.9 nM; Ca Flux IC50 [4]: 0.76 nM; pERK IC50 (nM) [4]: 0.56 nM; Kd [5]: ~5 nM |
| B5 | < 20 | ~80 |  |
| B6 |  |  | Kd [6]: 9.9 nM; Ca Flux IC50 [4]: 1.34 nM; pERK IC50 (nM) [4]: 0.42 nM |
| B7 | < 20 | ~80 | Kd [7]: ~5 nM |
| B8 | < 20 | > 70 |  |
| B9 |  |  | calcium flux EC50 (AGS-TR cells) [8]: 1 nM |
